Columns and labels:
[1] = biological target: Bovine serum albumin (BSA; Ultra Pure) (bovine) (UniProt P02769); experiment: imaging mass cytometry; no peptide (second background core); Ab 1 ug/ml
[2] = biological target: BCL2 peptide Ac-…-amide (amino acids 41-54 of human BCL2 with linkers) (human); experiment: imaging mass cytometry; peptide 2.50E-08 M in core
[3] = biological target: BCL2 peptide Ac-…-amide (amino acids 41-54 of human BCL2 with linkers) (human); experiment: imaging mass cytometry; peptide 2.50E-06 M in core
[4] = biological target: Bovine serum albumin (BSA; Ultra Pure) (bovine) (UniProt P02769); experiment: imaging mass cytometry; no peptide (background core); Ab 10 ug/ml
[5] = biological target: BCL2 peptide Ac-…-amide (amino acids 41-54 of human BCL2 with linkers) (human); experiment: imaging mass cytometry; peptide 2.50E-06 M in core (second core); Ab 5 ug/ml
[6] = biological target: BCL2 peptide Ac-…-amide (amino acids 41-54 of human BCL2 with linkers) (human); experiment: imaging mass cytometry; peptide 2.50E-05 M in core; Ab 5 ug/ml
[7] = biological target: BCL2 peptide Ac-…-amide (amino acids 41-54 of human BCL2 with linkers) (human); experiment: imaging mass cytometry; peptide 2.50E-04 M in core (second core); Ab 5 ug/ml
[8] = biological target: Bovine serum albumin (BSA; Ultra Pure) (bovine) (UniProt P02769); experiment: imaging mass cytometry; no peptide (second background core); Ab 5 ug/ml
[9] = biological target: BCL2 peptide Ac-…-amide (amino acids 41-54 of human BCL2 with linkers) (human); experiment: imaging mass cytometry; peptide 2.50E-07 M in core
[10] = biological target: BCL2 peptide Ac-…-amide (amino acids 41-54 of human BCL2 with linkers) (human); experiment: imaging mass cytometry; peptide 2.50E-04 M in core (second core); Ab 10 ug/ml
[11] = biological target: BCL2 peptide Ac-…-amide (amino acids 41-54 of human BCL2 with linkers) (human); experiment: imaging mass cytometry; peptide 2.50E-08 M in core; Ab 1 ug/ml

Sequence of BCL2 peptide Ac-…-amide (amino acids 41-54 of human BCL2 with linkers) (human) (peptide, as listed by the source): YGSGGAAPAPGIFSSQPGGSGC
Sequence of UniProt P02769 (P02769 25-607 limits assumed): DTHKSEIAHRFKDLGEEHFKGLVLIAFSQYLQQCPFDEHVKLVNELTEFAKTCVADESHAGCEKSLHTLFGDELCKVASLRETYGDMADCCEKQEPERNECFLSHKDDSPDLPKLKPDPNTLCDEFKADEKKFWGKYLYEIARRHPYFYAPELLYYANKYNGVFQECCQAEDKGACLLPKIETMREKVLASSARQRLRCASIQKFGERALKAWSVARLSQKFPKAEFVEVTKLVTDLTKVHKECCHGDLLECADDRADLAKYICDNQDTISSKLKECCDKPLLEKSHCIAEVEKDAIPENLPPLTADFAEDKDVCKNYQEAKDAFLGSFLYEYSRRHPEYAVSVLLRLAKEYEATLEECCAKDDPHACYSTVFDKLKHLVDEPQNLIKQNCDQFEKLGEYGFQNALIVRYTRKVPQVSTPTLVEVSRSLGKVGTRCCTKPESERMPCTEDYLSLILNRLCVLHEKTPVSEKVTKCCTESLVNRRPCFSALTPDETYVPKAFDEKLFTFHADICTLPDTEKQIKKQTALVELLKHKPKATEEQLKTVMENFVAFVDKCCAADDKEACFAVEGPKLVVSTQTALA

Fluidigm EPR17509-^146Nd antibody
Integrated Ion counts (per 150 micron square ROI) [1]: 1310 ion counts
Average Ion count [2]: 1310 ion counts
Ion count above background [2]: 134 ion counts
Moles ^146Nd Ab detected per ROI [2]: 7.5e-20 mol
^146Nd Ab/peptide [2]: 3.33%
Average Ion count [3]: 6400 ion counts
Ion count above background [3]: 522 ion counts
Moles ^146Nd Ab detected per ROI [3]: 2.93e-18 mol
^146Nd Ab/peptide [3]: 1.3%
Integrated Ion counts (per 150 micron square ROI) [4]: 979 ion counts
Integrated Ion counts (per 150 micron square ROI) [5]: 3900 ion counts
Integrated Ion counts (per 150 micron square ROI) [6]: 16600 ion counts
Integrated Ion counts (per 150 micron square ROI) [7]: 37400 ion counts
Integrated Ion counts (per 150 micron square ROI) [8]: 2380 ion counts
Average Ion count [9]: 1740 ion counts
Ion count above background [9]: 562 ion counts
Moles ^146Nd Ab detected per ROI [9]: 3.15e-19 mol
^146Nd Ab/peptide [9]: 1.4%
Integrated Ion counts (per 150 micron square ROI) [10]: 880000 ion counts
Integrated Ion counts (per 150 micron square ROI) [11]: 1450 ion counts
